{
  "source": "patent US20120039802A1",
  "about": "(published 2012)",
  "note": "fluorescein = fluorescein label on the side chain of the C-terminal Lys",
  "data": [
    {"target": "T1, cMet-Fc fusion protein (extracellular domain of the cMet receptor expressed as an Fc-fusion protein) (human, UniProt P08581 25-932)", "T1 construct": "extracellular domain; also called soluble cMet-Fc-fusion protein; soluble cMet receptor; not shown: Fc part", "T1 sequence (P08581 25-932)": "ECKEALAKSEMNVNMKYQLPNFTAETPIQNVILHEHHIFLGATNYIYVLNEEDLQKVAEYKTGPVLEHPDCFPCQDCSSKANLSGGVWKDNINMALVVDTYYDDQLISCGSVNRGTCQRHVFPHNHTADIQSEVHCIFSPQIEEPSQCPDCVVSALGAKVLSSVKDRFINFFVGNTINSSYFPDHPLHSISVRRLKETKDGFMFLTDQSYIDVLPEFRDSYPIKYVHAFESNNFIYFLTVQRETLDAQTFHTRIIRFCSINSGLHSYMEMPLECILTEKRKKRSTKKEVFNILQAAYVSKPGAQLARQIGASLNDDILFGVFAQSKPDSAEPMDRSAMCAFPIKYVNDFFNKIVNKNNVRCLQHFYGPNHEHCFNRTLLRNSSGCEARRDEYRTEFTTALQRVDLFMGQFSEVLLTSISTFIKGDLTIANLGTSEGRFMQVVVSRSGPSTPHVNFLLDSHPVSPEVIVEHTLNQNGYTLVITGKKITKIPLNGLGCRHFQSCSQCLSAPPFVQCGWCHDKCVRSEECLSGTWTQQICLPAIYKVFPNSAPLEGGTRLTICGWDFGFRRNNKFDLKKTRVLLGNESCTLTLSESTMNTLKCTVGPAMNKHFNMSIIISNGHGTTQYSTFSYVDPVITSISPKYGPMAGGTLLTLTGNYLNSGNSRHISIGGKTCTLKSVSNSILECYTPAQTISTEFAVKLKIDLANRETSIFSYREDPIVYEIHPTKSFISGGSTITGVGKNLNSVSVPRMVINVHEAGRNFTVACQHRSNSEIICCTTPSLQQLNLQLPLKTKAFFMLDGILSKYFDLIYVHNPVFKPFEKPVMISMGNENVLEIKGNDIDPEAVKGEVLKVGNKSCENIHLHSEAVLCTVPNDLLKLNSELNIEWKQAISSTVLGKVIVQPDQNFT", "assay": "phage ELISA, cMet-Fc vs TRAIL-Fc", "outline": "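Specificity check: phage displaying peptides incubated 2 h at room temperature on wells coated with 0.5 μg/mL cMet-Fc versus TRAIL-Fc, after blocking with 3% BSA/PBST. HRP-anti-M13 antibody detected binding phage.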", "units": {"Protein ELISA (fold over background)": "fold"}, "values": [
      {"binder": "AQFMYEKEHYVMSISLPGLWFY", "note": "[122-D07 peptide-displaying phage (SEQ ID NO: 486)]", "Protein ELISA (fold over background)": 3},
      {"binder": "AQHMDPAEWDWFIRIYSPVVNP", "note": "[149-E06 peptide-displaying phage (SEQ ID NO: 487)]", "Protein ELISA (fold over background)": 3},
      {"binder": "AQGIAWQLEWSYMPQSPPSFDR", "note": "[522-H03 peptide-displaying phage (SEQ ID NO: 495)]", "Protein ELISA (fold over background)": 4.5},
      {"binder": "AGVLQCIGFEWFCDIWGT", "note": "[423-C11 peptide-displaying phage (SEQ ID NO: 022)]", "Protein ELISA (fold over background)": 3.4},
      {"binder": "AGVWICRVWDDECFFQGT", "note": "[376-E05 peptide-displaying phage (SEQ ID NO: 020)]", "Protein ELISA (fold over background)": 3.7},
      {"binder": "AQHVVTLTLIQMPFAFNFEPRM", "note": "[118-B12 peptide-displaying phage (SEQ ID NO: 484)]", "Protein ELISA (fold over background)": 3.1},
      {"binder": "AQWPHDGLVHWGEVIMLRF", "note": "[117-F04 peptide-displaying phage (SEQ ID NO: 479)]", "Protein ELISA (fold over background)": 3.3},
      {"binder": "AQLFQYLWHDDPQGAFFQLSMW", "note": "[98-F05 peptide-displaying phage (SEQ ID NO: 483)]", "Protein ELISA (fold over background)": 3.1},
      {"binder": "AQWNWDMGFMWTTDSAQVQPSM", "note": "[96-D06 peptide-displaying phage (SEQ ID NO: 489)]", "Protein ELISA (fold over background)": 3},
      {"binder": "AGTVYCSWESSECWWVGT", "note": "[352-E04 peptide-displaying phage (SEQ ID NO: 019)]", "Protein ELISA (fold over background)": 3.9},
      {"binder": "AGDHYCWEEWWFCWDSGT", "note": "[482-A12 peptide-displaying phage (SEQ ID NO: 021)]", "Protein ELISA (fold over background)": 3.5},
      {"binder": "AGYPECKDNYHWCEWKGT", "note": "[457-A09 peptide-displaying phage (SEQ ID NO: 024)]", "Protein ELISA (fold over background)": 14.5}
    ]},
    {"target": "T2, human cMet expressed on 3T3 cells (human, UniProt P08581 25-1390)", "T2 construct": "whole, on cells; cells fixed with glutaraldehyde; also called cell surface-expressed human cMet; 3T3 cells that over-express human cMet", "T2 sequence (P08581 25-1390)": "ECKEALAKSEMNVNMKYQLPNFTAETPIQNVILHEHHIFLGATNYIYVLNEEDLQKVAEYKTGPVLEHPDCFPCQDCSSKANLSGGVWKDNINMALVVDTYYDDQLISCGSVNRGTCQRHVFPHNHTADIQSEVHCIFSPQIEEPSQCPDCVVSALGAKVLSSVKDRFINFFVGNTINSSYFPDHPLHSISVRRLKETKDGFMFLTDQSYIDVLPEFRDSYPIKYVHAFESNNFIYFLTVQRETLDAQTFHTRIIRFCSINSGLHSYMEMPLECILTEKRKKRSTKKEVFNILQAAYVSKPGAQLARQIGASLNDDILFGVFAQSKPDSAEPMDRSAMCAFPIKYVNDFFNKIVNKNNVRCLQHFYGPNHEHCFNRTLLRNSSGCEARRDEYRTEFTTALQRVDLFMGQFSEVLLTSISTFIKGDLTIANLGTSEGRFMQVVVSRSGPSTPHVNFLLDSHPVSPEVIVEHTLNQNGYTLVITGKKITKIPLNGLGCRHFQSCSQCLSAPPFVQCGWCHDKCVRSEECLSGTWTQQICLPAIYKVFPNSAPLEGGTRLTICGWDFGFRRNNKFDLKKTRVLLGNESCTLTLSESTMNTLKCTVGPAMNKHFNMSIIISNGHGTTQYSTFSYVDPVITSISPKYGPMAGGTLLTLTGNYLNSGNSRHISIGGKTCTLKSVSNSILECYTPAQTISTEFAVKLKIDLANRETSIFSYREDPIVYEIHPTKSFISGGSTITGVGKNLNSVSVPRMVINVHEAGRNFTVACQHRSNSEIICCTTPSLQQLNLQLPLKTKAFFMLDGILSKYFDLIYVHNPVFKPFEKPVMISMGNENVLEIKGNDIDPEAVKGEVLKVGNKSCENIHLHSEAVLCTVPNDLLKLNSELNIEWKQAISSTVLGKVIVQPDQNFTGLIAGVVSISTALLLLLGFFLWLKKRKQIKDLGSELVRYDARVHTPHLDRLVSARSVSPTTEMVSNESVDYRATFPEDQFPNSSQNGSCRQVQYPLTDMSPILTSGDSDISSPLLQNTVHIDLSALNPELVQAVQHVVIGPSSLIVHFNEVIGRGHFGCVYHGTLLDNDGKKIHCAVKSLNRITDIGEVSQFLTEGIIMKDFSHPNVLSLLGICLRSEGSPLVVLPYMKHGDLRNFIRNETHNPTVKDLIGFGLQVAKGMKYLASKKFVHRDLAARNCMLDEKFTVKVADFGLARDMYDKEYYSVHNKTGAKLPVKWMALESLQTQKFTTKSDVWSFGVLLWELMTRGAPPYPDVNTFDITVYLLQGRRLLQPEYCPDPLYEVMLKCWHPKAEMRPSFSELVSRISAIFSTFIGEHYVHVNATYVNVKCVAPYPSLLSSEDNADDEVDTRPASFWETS", "assay": "whole cell phage ELISA, 3T3 human cMet vs 3T3", "outline": "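Bound phage was detected with an HRP-conjugated anti-M13 antibody after PBST washes. The cells were cMet-over-expressing 3T3, read against plain 3T3.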", "units": {"WC ELISA (fold over background)": "fold"}, "values": [
      {"binder": "AQFMYEKEHYVMSISLPGLWFY", "note": "[122-D07 peptide-displaying phage (SEQ ID NO: 486)]", "WC ELISA (fold over background)": 1.63},
      {"binder": "AQHMDPAEWDWFIRIYSPVVNP", "note": "[149-E06 peptide-displaying phage (SEQ ID NO: 487)]", "WC ELISA (fold over background)": 1.8},
      {"binder": "AQGIAWQLEWSYMPQSPPSFDR", "note": "[522-H03 peptide-displaying phage (SEQ ID NO: 495)]", "WC ELISA (fold over background)": 1.17},
      {"binder": "AGVLQCIGFEWFCDIWGT", "note": "[423-C11 peptide-displaying phage (SEQ ID NO: 022)]", "WC ELISA (fold over background)": 1.4},
      {"binder": "AGVWICRVWDDECFFQGT", "note": "[376-E05 peptide-displaying phage (SEQ ID NO: 020)]", "WC ELISA (fold over background)": 1.37},
      {"binder": "AQHVVTLTLIQMPFAFNFEPRM", "note": "[118-B12 peptide-displaying phage (SEQ ID NO: 484)]", "WC ELISA (fold over background)": 1.3},
      {"binder": "AQWPHDGLVHWGEVIMLRF", "note": "[117-F04 peptide-displaying phage (SEQ ID NO: 479)]", "WC ELISA (fold over background)": 1.37},
      {"binder": "AQLFQYLWHDDPQGAFFQLSMW", "note": "[98-F05 peptide-displaying phage (SEQ ID NO: 483)]", "WC ELISA (fold over background)": 1.23},
      {"binder": "AQWNWDMGFMWTTDSAQVQPSM", "note": "[96-D06 peptide-displaying phage (SEQ ID NO: 489)]", "WC ELISA (fold over background)": 1.37},
      {"binder": "AGTVYCSWESSECWWVGT", "note": "[352-E04 peptide-displaying phage (SEQ ID NO: 019)]", "WC ELISA (fold over background)": 1.37},
      {"binder": "AGDHYCWEEWWFCWDSGT", "note": "[482-A12 peptide-displaying phage (SEQ ID NO: 021)]", "WC ELISA (fold over background)": 1.37},
      {"binder": "AGYPECKDNYHWCEWKGT", "note": "[457-A09 peptide-displaying phage (SEQ ID NO: 024)]", "WC ELISA (fold over background)": 1.3}
    ]},
    {"target": "T1, cMet-Fc fusion protein (extracellular …)", "assay": "phage ELISA on cMet-Fc, competitor HGF 100 ng/mL", "outline": "(§1)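 Plates coated with 0.5 μg/mL cMet-Fc, with TRAIL-Fc as background, then blocked with 3% BSA. Bound phage detected with HRP anti-M13 antibody.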", "units": {"% of binding in the absence of HGF": "%"}, "values": [
      {"binder": "AQFMYEKEHYVMSISLPGLWFY", "note": "[122-D07 peptide-displaying phage (SEQ ID NO: 486)]", "% of binding in the absence of HGF": 102},
      {"binder": "AQHMDPAEWDWFIRIYSPVVNP", "note": "[149-E06 peptide-displaying phage (SEQ ID NO: 487)]", "% of binding in the absence of HGF": 80},
      {"binder": "AQGIAWQLEWSYMPQSPPSFDR", "note": "[522-H03 peptide-displaying phage (SEQ ID NO: 495)]", "% of binding in the absence of HGF": 107},
      {"binder": "AGVLQCIGFEWFCDIWGT", "note": "[423-C11 peptide-displaying phage (SEQ ID NO: 022)]", "% of binding in the absence of HGF": 132},
      {"binder": "AGVWICRVWDDECFFQGT", "note": "[376-E05 peptide-displaying phage (SEQ ID NO: 020)]", "% of binding in the absence of HGF": 122},
      {"binder": "AQHVVTLTLIQMPFAFNFEPRM", "note": "[118-B12 peptide-displaying phage (SEQ ID NO: 484)]", "% of binding in the absence of HGF": 98},
      {"binder": "AQWPHDGLVHWGEVIMLRF", "note": "[117-F04 peptide-displaying phage (SEQ ID NO: 479)]", "% of binding in the absence of HGF": 93},
      {"binder": "AQLFQYLWHDDPQGAFFQLSMW", "note": "[98-F05 peptide-displaying phage (SEQ ID NO: 483)]", "% of binding in the absence of HGF": 88},
      {"binder": "AQWNWDMGFMWTTDSAQVQPSM", "note": "[96-D06 peptide-displaying phage (SEQ ID NO: 489)]", "% of binding in the absence of HGF": 154},
      {"binder": "AGTVYCSWESSECWWVGT", "note": "[352-E04 peptide-displaying phage (SEQ ID NO: 019)]", "% of binding in the absence of HGF": 88},
      {"binder": "AGDHYCWEEWWFCWDSGT", "note": "[482-A12 peptide-displaying phage (SEQ ID NO: 021)]", "% of binding in the absence of HGF": 98},
      {"binder": "AGYPECKDNYHWCEWKGT", "note": "[457-A09 peptide-displaying phage (SEQ ID NO: 024)]", "% of binding in the absence of HGF": 27}
    ]},
    {"target": "T1, cMet-Fc fusion protein (extracellular …)", "assay": "phage ELISA on cMet-Fc, competitor HGF 500 ng/mL", "outline": "as §1", "units": {"% of binding in the absence of HGF": "%"}, "values": [
      {"binder": "AQFMYEKEHYVMSISLPGLWFY", "note": "[122-D07 peptide-displaying phage (SEQ ID NO: 486)]", "% of binding in the absence of HGF": 92},
      {"binder": "AQHMDPAEWDWFIRIYSPVVNP", "note": "[149-E06 peptide-displaying phage (SEQ ID NO: 487)]", "% of binding in the absence of HGF": 86},
      {"binder": "AQGIAWQLEWSYMPQSPPSFDR", "note": "[522-H03 peptide-displaying phage (SEQ ID NO: 495)]", "% of binding in the absence of HGF": 94},
      {"binder": "AGVLQCIGFEWFCDIWGT", "note": "[423-C11 peptide-displaying phage (SEQ ID NO: 022)]", "% of binding in the absence of HGF": 75},
      {"binder": "AGVWICRVWDDECFFQGT", "note": "[376-E05 peptide-displaying phage (SEQ ID NO: 020)]", "% of binding in the absence of HGF": 121},
      {"binder": "AQHVVTLTLIQMPFAFNFEPRM", "note": "[118-B12 peptide-displaying phage (SEQ ID NO: 484)]", "% of binding in the absence of HGF": 112},
      {"binder": "AQWPHDGLVHWGEVIMLRF", "note": "[117-F04 peptide-displaying phage (SEQ ID NO: 479)]", "% of binding in the absence of HGF": 91},
      {"binder": "AQLFQYLWHDDPQGAFFQLSMW", "note": "[98-F05 peptide-displaying phage (SEQ ID NO: 483)]", "% of binding in the absence of HGF": 57},
      {"binder": "AQWNWDMGFMWTTDSAQVQPSM", "note": "[96-D06 peptide-displaying phage (SEQ ID NO: 489)]", "% of binding in the absence of HGF": 151},
      {"binder": "AGTVYCSWESSECWWVGT", "note": "[352-E04 peptide-displaying phage (SEQ ID NO: 019)]", "% of binding in the absence of HGF": 74},
      {"binder": "AGDHYCWEEWWFCWDSGT", "note": "[482-A12 peptide-displaying phage (SEQ ID NO: 021)]", "% of binding in the absence of HGF": 79},
      {"binder": "AGYPECKDNYHWCEWKGT", "note": "[457-A09 peptide-displaying phage (SEQ ID NO: 024)]", "% of binding in the absence of HGF": 67}
    ]},
    {"target": "T1, cMet-Fc fusion protein (extracellular …)", "assay": "fluorescence polarization, 20 nM fluorescein peptide, cMet-Fc varied", "procedure": "Fluorescence anisotropy measurements were performed in 384-well microplates in a volume of 10 μL in binding buffer (PBS, 0.01% Tween-20, pH 7.5) using a Tecan Polarion fluorescence polarization plate reader ([…]). […] Binding mixtures were equilibrated for 10 minutes in the microplate at 30 C before measurement. The observed change in anisotropy was fit to the equation below via nonlinear regression to obtain the apparent KD. This equation (1) assumes that the synthetic peptide and cMet form a reversible complex in solution with 1:1 stoichiometry.", "units": {"Kd": "µM"}, "values": [
      {"binder": "Ac-AGSIQCKGPPWFSCAMYGTGGGK(fluorescein)-NH2 (cysteine pairing not given here)", "note": "[325-H05 synthetic fluorescein-labeled peptide (SEQ ID NO: 048)]", "Kd": 3.5},
      {"binder": "Ac-AGWFQCKGPPSFECERHGTGGGK(fluorescein)-NH2 (cysteine pairing not given here)", "note": "[336-G04 synthetic fluorescein-labeled peptide (SEQ ID NO: 051)]", "Kd": 3.2}
    ]}
  ]
}
